Data reported in US20220025056A1.
pKd: −log10 of the molar value.

Legend:
[1] = target: human ILT2 (LILRB1) expressed at the surface of transfected cells (human) (UniProt Q8NHL6); experiment: flow cytometry, CHO-ILT2 cells
[2] = target: ILT-2_6xHis recombinant protein (human) (UniProt Q8NHL6); experiment: Octet BLI, antibody on anti-mouse Fc sensor, soluble ILT2 analyte
Chain of ILT-2_6xHis recombinant protein (human) (Q8NHL6 other isoform, or with tags, fused parts or gaps limits assumed): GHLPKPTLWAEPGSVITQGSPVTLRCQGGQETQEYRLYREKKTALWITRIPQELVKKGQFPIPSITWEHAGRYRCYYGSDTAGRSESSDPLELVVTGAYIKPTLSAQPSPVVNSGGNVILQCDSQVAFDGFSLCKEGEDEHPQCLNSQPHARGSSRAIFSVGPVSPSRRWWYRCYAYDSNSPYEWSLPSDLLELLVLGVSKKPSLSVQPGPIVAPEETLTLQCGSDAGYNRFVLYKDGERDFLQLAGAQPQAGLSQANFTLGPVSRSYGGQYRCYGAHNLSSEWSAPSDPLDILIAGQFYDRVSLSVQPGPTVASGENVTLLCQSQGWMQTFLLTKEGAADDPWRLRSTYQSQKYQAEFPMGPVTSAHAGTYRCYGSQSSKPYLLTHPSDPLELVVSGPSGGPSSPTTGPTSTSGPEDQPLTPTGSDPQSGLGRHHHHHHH

Chain of human ILT2 (LILRB1) expressed at the surface of transfected cells (human) (Q8NHL6 24-650): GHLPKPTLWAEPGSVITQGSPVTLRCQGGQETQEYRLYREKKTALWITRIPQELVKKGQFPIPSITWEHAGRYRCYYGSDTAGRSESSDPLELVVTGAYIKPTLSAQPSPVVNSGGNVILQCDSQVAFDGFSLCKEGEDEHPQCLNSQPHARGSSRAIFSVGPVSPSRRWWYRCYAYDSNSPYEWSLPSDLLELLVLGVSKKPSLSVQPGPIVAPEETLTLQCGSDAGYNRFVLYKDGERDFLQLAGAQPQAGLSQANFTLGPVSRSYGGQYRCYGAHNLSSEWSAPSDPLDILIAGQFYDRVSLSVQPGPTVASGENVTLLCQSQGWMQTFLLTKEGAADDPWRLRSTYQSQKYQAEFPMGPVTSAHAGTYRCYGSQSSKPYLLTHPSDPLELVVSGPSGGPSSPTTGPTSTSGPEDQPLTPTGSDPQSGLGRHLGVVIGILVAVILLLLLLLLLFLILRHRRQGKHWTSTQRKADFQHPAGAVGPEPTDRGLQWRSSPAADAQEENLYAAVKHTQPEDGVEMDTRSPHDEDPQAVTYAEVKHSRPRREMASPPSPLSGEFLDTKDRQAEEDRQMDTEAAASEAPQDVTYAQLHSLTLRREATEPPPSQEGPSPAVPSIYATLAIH

EC50 [1]: 5.39 µg/mL | pKd [2]: 7.55 | koff [2]: 0.00038 s⁻¹ | kon [2]: 13000 M⁻¹ s⁻¹
Substance: GHI/75 (antibody)
